Experimental data published in patent US20120178682A1 (published 2012).
Bridge positions count the residues as written; N and C are the ends. Ends that are not written are not given here.

Columns and labels:
[1] = molecular target: VEGF (form and enantiomer not stated at paragraph 530); experiment: Octet-SPR, preliminary estimate, reference RFX001
[2] = molecular target: VEGF (form and enantiomer not stated at paragraph 530); experiment: standard SPR, preliminary estimate, reference RFX001

VEGF (form and enantiomer not stated at paragraph 530), sequence (P15692 whole entry): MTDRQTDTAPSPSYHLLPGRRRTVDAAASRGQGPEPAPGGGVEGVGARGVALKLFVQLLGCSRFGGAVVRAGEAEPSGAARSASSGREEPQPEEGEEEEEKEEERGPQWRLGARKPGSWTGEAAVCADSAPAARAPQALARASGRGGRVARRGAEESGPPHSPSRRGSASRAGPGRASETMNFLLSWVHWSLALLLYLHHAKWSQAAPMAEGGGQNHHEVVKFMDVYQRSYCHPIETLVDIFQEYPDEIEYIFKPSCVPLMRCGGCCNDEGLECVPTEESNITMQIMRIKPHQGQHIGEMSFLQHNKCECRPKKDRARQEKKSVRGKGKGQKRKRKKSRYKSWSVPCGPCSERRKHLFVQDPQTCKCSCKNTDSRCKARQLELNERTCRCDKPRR

B1: RFX002 (enantiomer and preparation not stated at paragraph 530) (designed binder)
chain: TYKMILNGKTLKSECTTEAVDLFDAFDVLFVCAASNFSFIDDWTYDDATKTFTVTE
modifications: disulfide 15-32 (inferred); also: enantiomer (L- or D-form) not given here
**Q.** Which “fold increase of binding affinity against RFX001” value [1] does the source give for B1 here?
**A.** ~5 fold

**Q.** And the “fold increase of binding affinity against RFX001” value [2]?
**A.** ~2 fold
